Assay results published in patent publication US20250171562A1 (ALK ABELL, published 2025).

Biological target: T1, recombinant human IgE (human, UniProt P01854-1 1-428)
T1 construct: made in-house (ALK); preloaded on immobilised FcεRIα in the displacement ELISA
Test: IgE-FcεRIα displacement ELISA
Summary of the method: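 sdAbs at pM–μM were incubated 1 h on preformed complexes of 13 ng/ml recombinant human IgE with avi-tag-biotinylated human FcεRIα captured on streptavidin.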

T1 sequence (P01854 other isoform, or with tags, fused parts or gaps): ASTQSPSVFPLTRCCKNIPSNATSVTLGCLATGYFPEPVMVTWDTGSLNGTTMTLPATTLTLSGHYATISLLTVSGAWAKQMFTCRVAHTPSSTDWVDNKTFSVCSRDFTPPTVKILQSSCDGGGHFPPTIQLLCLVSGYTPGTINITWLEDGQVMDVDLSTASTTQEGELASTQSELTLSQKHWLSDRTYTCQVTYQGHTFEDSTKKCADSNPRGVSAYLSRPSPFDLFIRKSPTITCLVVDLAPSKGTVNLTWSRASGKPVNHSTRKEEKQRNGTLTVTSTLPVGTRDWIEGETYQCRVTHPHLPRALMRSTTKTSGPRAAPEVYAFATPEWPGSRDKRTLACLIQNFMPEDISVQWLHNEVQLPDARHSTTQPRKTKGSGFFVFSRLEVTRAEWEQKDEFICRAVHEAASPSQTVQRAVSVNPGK

Binder | EC50 [nM] | Max effect [%]
CIgG4B2A1(G4S)3 (Fc fusion) chain 1: GPPCPPCPAPEFLGGPSVFLFPPKPKDTLMISRTPEVTCVVVDVSQEDPEVQFNWYVDGVEVHNAKTKPREEQFNSTYRVVSVLTVLHQDWLNGKEYKCKVSNKGLPSSIEKTISKAKGQPREPQVYTLPPCQEEMTKNQVSLWCLVKGFYPSDIAVEWESNGQPENNYKTTPPVLDSDGSFFLYSRLTVDKSRWQEGNVFSCSVMHEALHNHYTQKSLSLSLGKGGGGSGGGGSGGGGSQVQLVESGGGLVQAGGSLRLSCAVFGSTFSNNVADWYRQAPGKQRELVARISASGATREYGDSVKGRFTISRDDAKNTMYLQMNNLKPEDTAVYRCHKIEWEDLSRKDYWGQGTQVTVS chain 2: GPPCPPCPAPEFLGGPSVFLFPPKPKDTLMISRTPEVTCVVVDVSQEDPEVQFNWYVDGVEVHNAKTKPREEQFNSTYRVVSVLTVLHQDWLNGKEYKCKVSNKGLPSSIEKTISKAKGQPREPQVCTLPPSQEEMTKNQVSLSCAVKGFYPSDIAVEWESNGQPENNYKTTPPVLDSDGSFFLVSRLTVDKSRWQEGNVFSCSVMHEALHNHYTQKSLSLSLGKGGGGSGGGGSGGGGSEVQLLESGGGLVQPGGSLRLSCAASGFTFGNYDMAWVRQAPGKRPEWVSSIDTGGDITHYADSVKGRFTISRDNAKNTLYLQMNSLRPEDTAVYWCATDEEYALGPNEFDYYGQGTLVTVSS | 2.1 | > 95
NIgG4B2A1(G4S)2 (Fc fusion) chain 1: QVQLVESGGGLVQAGGSLRLSCAVFGSTFSNNVADWYRQAPGKQRELVARISASGATREYGDSVKGRFTISRDDAKNTMYLQMNNLKPEDTAVYRCHKIEWEDLSRKDYWGQGTQVTVSGGGGSGGGGSGPPCPPCPAPEFLGGPSVFLFPPKPKDTLMISRTPEVTCVVVDVSQEDPEVQFNWYVDGVEVHNAKTKPREEQFNSTYRVVSVLTVLHQDWLNGKEYKCKVSNKGLPSSIEKTISKAKGQPREPQVYTLPPCQEEMTKNQVSLWCLVKGFYPSDIAVEWESNGQPENNYKTTPPVLDSDGSFFLYSRLTVDKSRWQEGNVFSCSVMHEALHNHYTQKSLSLSLGK chain 2: EVQLLESGGGLVQPGGSLRLSCAASGFTFGNYDMAWVRQAPGKRPEWVSSIDTGGDITHYADSVKGRFTISRDNAKNTLYLQMNSLRPEDTAVYWCATDEEYALGPNEFDYYGQGTLVTVSSGGGGSGGGGSGPPCPPCPAPEFLGGPSVFLFPPKPKDTLMISRTPEVTCVVVDVSQEDPEVQFNWYVDGVEVHNAKTKPREEQFNSTYRVVSVLTVLHQDWLNGKEYKCKVSNKGLPSSIEKTISKAKGQPREPQVCTLPPSQEEMTKNQVSLSCAVKGFYPSDIAVEWESNGQPENNYKTTPPVLDSDGSFFLVSRLTVDKSRWQEGNVFSCSVMHEALHNHYTQKSLSLSLGK | – | > 95
CIgG4B2A1(G4S)2 (Fc fusion) chain 1: GPPCPPCPAPEFLGGPSVFLFPPKPKDTLMISRTPEVTCVVVDVSQEDPEVQFNWYVDGVEVHNAKTKPREEQFNSTYRVVSVLTVLHQDWLNGKEYKCKVSNKGLPSSIEKTISKAKGQPREPQVYTLPPCQEEMTKNQVSLWCLVKGFYPSDIAVEWESNGQPENNYKTTPPVLDSDGSFFLYSRLTVDKSRWQEGNVFSCSVMHEALHNHYTQKSLSLSLGKGGGGSGGGGSQVQLVESGGGLVQAGGSLRLSCAVFGSTFSNNVADWYRQAPGKQRELVARISASGATREYGDSVKGRFTISRDDAKNTMYLQMNNLKPEDTAVYRCHKIEWEDLSRKDYWGQGTQVTVS chain 2: GPPCPPCPAPEFLGGPSVFLFPPKPKDTLMISRTPEVTCVVVDVSQEDPEVQFNWYVDGVEVHNAKTKPREEQFNSTYRVVSVLTVLHQDWLNGKEYKCKVSNKGLPSSIEKTISKAKGQPREPQVCTLPPSQEEMTKNQVSLSCAVKGFYPSDIAVEWESNGQPENNYKTTPPVLDSDGSFFLVSRLTVDKSRWQEGNVFSCSVMHEALHNHYTQKSLSLSLGKGGGGSGGGGSEVQLLESGGGLVQPGGSLRLSCAASGFTFGNYDMAWVRQAPGKRPEWVSSIDTGGDITHYADSVKGRFTISRDNAKNTLYLQMNSLRPEDTAVYWCATDEEYALGPNEFDYYGQGTLVTVSS | 0.7 | > 95

Now from value to binder:

EC50 [nM] | Max effect [%] | Binder
0.8 | > 95 | CIgG4B2A1(G4S)1 (Fc fusion) chain 1: GPPCPPCPAPEFLGGPSVFLFPPKPKDTLMISRTPEVTCVVVDVSQEDPEVQFNWYVDGVEVHNAKTKPREEQFNSTYRVVSVLTVLHQDWLNGKEYKCKVSNKGLPSSIEKTISKAKGQPREPQVYTLPPCQEEMTKNQVSLWCLVKGFYPSDIAVEWESNGQPENNYKTTPPVLDSDGSFFLYSRLTVDKSRWQEGNVFSCSVMHEALHNHYTQKSLSLSLGKGGGGSQVQLVESGGGLVQAGGSLRLSCAVFGSTFSNNVADWYRQAPGKQRELVARISASGATREYGDSVKGRFTISRDDAKNTMYLQMNNLKPEDTAVYRCHKIEWEDLSRKDYWGQGTQVTVS chain 2: GPPCPPCPAPEFLGGPSVFLFPPKPKDTLMISRTPEVTCVVVDVSQEDPEVQFNWYVDGVEVHNAKTKPREEQFNSTYRVVSVLTVLHQDWLNGKEYKCKVSNKGLPSSIEKTISKAKGQPREPQVCTLPPSQEEMTKNQVSLSCAVKGFYPSDIAVEWESNGQPENNYKTTPPVLDSDGSFFLVSRLTVDKSRWQEGNVFSCSVMHEALHNHYTQKSLSLSLGKGGGGSEVQLLESGGGLVQPGGSLRLSCAASGFTFGNYDMAWVRQAPGKRPEWVSSIDTGGDITHYADSVKGRFTISRDNAKNTLYLQMNSLRPEDTAVYWCATDEEYALGPNEFDYYGQGTLVTVSS
130 | 70 | CIgG4B2A1(RS) (Fc fusion) chain 1: GPPCPPCPAPEFLGGPSVFLFPPKPKDTLMISRTPEVTCVVVDVSQEDPEVQFNWYVDGVEVHNAKTKPREEQFNSTYRVVSVLTVLHQDWLNGKEYKCKVSNKGLPSSIEKTISKAKGQPREPQVYTLPPCQEEMTKNQVSLWCLVKGFYPSDIAVEWESNGQPENNYKTTPPVLDSDGSFFLYSRLTVDKSRWQEGNVFSCSVMHEALHNHYTQKSLSLSLGKRSQVQLVESGGGLVQAGGSLRLSCAVFGSTFSNNVADWYRQAPGKQRELVARISASGATREYGDSVKGRFTISRDDAKNTMYLQMNNLKPEDTAVYRCHKIEWEDLSRKDYWGQGTQVTVS chain 2: GPPCPPCPAPEFLGGPSVFLFPPKPKDTLMISRTPEVTCVVVDVSQEDPEVQFNWYVDGVEVHNAKTKPREEQFNSTYRVVSVLTVLHQDWLNGKEYKCKVSNKGLPSSIEKTISKAKGQPREPQVCTLPPSQEEMTKNQVSLSCAVKGFYPSDIAVEWESNGQPENNYKTTPPVLDSDGSFFLVSRLTVDKSRWQEGNVFSCSVMHEALHNHYTQKSLSLSLGKRSEVQLLESGGGLVQPGGSLRLSCAASGFTFGNYDMAWVRQAPGKRPEWVSSIDTGGDITHYADSVKGRFTISRDNAKNTLYLQMNSLRPEDTAVYWCATDEEYALGPNEFDYYGQGTLVTVSS
– | 0 | CIgG4B3A1(RS) (Fc fusion) chain 1: GPPCPPCPAPEFLGGPSVFLFPPKPKDTLMISRTPEVTCVVVDVSQEDPEVQFNWYVDGVEVHNAKTKPREEQFNSTYRVVSVLTVLHQDWLNGKEYKCKVSNKGLPSSIEKTISKAKGQPREPQVYTLPPCQEEMTKNQVSLWCLVKGFYPSDIAVEWESNGQPENNYKTTPPVLDSDGSFFLYSRLTVDKSRWQEGNVFSCSVMHEALHNHYTQKSLSLSLGKRSDVQLQESGGGLVQAGGSLRLSCAASGFIFRLAGMSWVRQAPGKGFEWVSGITMDGSTTNYADSVKGRFTISRDNSKNRLYLQMNSLKPEDTAVYYCARGAKGGYNDPRGQGTQVTVS chain 2: GPPCPPCPAPEFLGGPSVFLFPPKPKDTLMISRTPEVTCVVVDVSQEDPEVQFNWYVDGVEVHNAKTKPREEQFNSTYRVVSVLTVLHQDWLNGKEYKCKVSNKGLPSSIEKTISKAKGQPREPQVCTLPPSQEEMTKNQVSLSCAVKGFYPSDIAVEWESNGQPENNYKTTPPVLDSDGSFFLVSRLTVDKSRWQEGNVFSCSVMHEALHNHYTQKSLSLSLGKRSEVQLLESGGGLVQPGGSLRLSCAASGFTFGNYDMAWVRQAPGKRPEWVSSIDTGGDITHYADSVKGRFTISRDNAKNTLYLQMNSLRPEDTAVYWCATDEEYALGPNEFDYYGQGTLVTVSS
– | > 95 | NIgG4B2A1(G4S)3 (Fc fusion) chain 1: QVQLVESGGGLVQAGGSLRLSCAVFGSTFSNNVADWYRQAPGKQRELVARISASGATREYGDSVKGRFTISRDDAKNTMYLQMNNLKPEDTAVYRCHKIEWEDLSRKDYWGQGTQVTVSGGGGSGGGGSGGGGSGPPCPPCPAPEFLGGPSVFLFPPKPKDTLMISRTPEVTCVVVDVSQEDPEVQFNWYVDGVEVHNAKTKPREEQFNSTYRVVSVLTVLHQDWLNGKEYKCKVSNKGLPSSIEKTISKAKGQPREPQVYTLPPCQEEMTKNQVSLWCLVKGFYPSDIAVEWESNGQPENNYKTTPPVLDSDGSFFLYSRLTVDKSRWQEGNVFSCSVMHEALHNHYTQKSLSLSLGK chain 2: EVQLLESGGGLVQPGGSLRLSCAASGFTFGNYDMAWVRQAPGKRPEWVSSIDTGGDITHYADSVKGRFTISRDNAKNTLYLQMNSLRPEDTAVYWCATDEEYALGPNEFDYYGQGTLVTVSSGGGGSGGGGSGGGGSGPPCPPCPAPEFLGGPSVFLFPPKPKDTLMISRTPEVTCVVVDVSQEDPEVQFNWYVDGVEVHNAKTKPREEQFNSTYRVVSVLTVLHQDWLNGKEYKCKVSNKGLPSSIEKTISKAKGQPREPQVCTLPPSQEEMTKNQVSLSCAVKGFYPSDIAVEWESNGQPENNYKTTPPVLDSDGSFFLVSRLTVDKSRWQEGNVFSCSVMHEALHNHYTQKSLSLSLGK
– | > 95 | NIgG4B2A1(G4S)1 (Fc fusion) chain 1: QVQLVESGGGLVQAGGSLRLSCAVFGSTFSNNVADWYRQAPGKQRELVARISASGATREYGDSVKGRFTISRDDAKNTMYLQMNNLKPEDTAVYRCHKIEWEDLSRKDYWGQGTQVTVSGGGGSGPPCPPCPAPEFLGGPSVFLFPPKPKDTLMISRTPEVTCVVVDVSQEDPEVQFNWYVDGVEVHNAKTKPREEQFNSTYRVVSVLTVLHQDWLNGKEYKCKVSNKGLPSSIEKTISKAKGQPREPQVYTLPPCQEEMTKNQVSLWCLVKGFYPSDIAVEWESNGQPENNYKTTPPVLDSDGSFFLYSRLTVDKSRWQEGNVFSCSVMHEALHNHYTQKSLSLSLGK chain 2: EVQLLESGGGLVQPGGSLRLSCAASGFTFGNYDMAWVRQAPGKRPEWVSSIDTGGDITHYADSVKGRFTISRDNAKNTLYLQMNSLRPEDTAVYWCATDEEYALGPNEFDYYGQGTLVTVSSGGGGSGPPCPPCPAPEFLGGPSVFLFPPKPKDTLMISRTPEVTCVVVDVSQEDPEVQFNWYVDGVEVHNAKTKPREEQFNSTYRVVSVLTVLHQDWLNGKEYKCKVSNKGLPSSIEKTISKAKGQPREPQVCTLPPSQEEMTKNQVSLSCAVKGFYPSDIAVEWESNGQPENNYKTTPPVLDSDGSFFLVSRLTVDKSRWQEGNVFSCSVMHEALHNHYTQKSLSLSLGK
